Key:
[1] = pH optimum in Universal Buffer; type: biochemical; conditions: pH 5-11, p-nitrophenyl butyrate
Description: Esterase activity was determined by monitoring the formation of pNP at 410 nm from various pNP-esters using a Beckman UV spectrophotometer (model DU 640) (21). Substrates were dissolved in isopropanol and were added to 50 mM sodium phosphate buffer pH 8.0 to give 10% (v/v) total isopropanol concentration in a 1 mL reaction volume. pNP-butyrate was used at a final concentration of 1.2 mM. For pNP-caprylate, myristate and palmitate, the final concentration ranged from 0.1 to 0.5 mM. The reaction (1 mL) was started by adding an appropriate amount of enzyme. One enzyme unit (U) is defined as the amount of enzyme that produced 1 μmol of product (pNP) per min; specific activity is expressed as U/mg protein. A molar extinction coefficient of 15 mM^−1 cm^−1 for pNP is used for calculating enzyme activity.
Universal Buffer solutions were prepared according to Britton and Robinson (Surinenaite et al., 2002), having the selected pH value from 5-11. Activity of KrCUT and KrCUT189 were measured at the indicated pH, using p-nitrophenyl butyrate as substrate as described in Example 1, section 1.6). Curves were obtained by plotting values of activity against pH.

[2] = Hydrolysis of cutin, GC-MS of released monomers; type: biochemical, Apple (Golden Delicious)
Description: Apple (Golden Delicious) cutin was used as substrate. The outer layer of the fruit was peeled by hand and cutin preparation carried out as described by Gerard et al. (1993) with minor modifications. Discs of apple peels were incubated at 50° C. in oxalate buffer [(oxalic acid (4 g/L)/ammonium oxalate (16 g/L)] for 16 h and then collected and washed several times with deionized water. The sample was treated with 0.5% Novozymes Aspergillus niger pectinase (Sigma P2736) in 100 mM phosphate citrate buffer pH 5.8 for 16 h. The cutin sheets were washed with ethanol, followed by several washes with chloroform, and then incubated in chloroform at 45° C. for 16 h, and finally dried to constant weight. The cutin was ground in a Cyclone sample Mill (UDY Corporation, Fort Collings, Colo., USA).
A typical reaction mixture (2 mL) contained 20 mg cutin and an appropriate amount of cutinase in 25 mM sodium phosphate buffer, pH 8.0. The mixture was incubated in a water bath at 37° C. with gentle shaking for 16 h. Assays were conducted in duplicate. At the end of the reaction, the remaining cutin was removed by centrifugation (10 min, 5000 rpm). The resulting solution was acidified with hydrochloric acid and cutin monomers extracted with chloroform/methanol, according to Bligh and Dyer (1959). The organic phase was removed by evaporation under an air stream and the dried residue dissolved in 1 mL chloroform/methanol (85:15) and used for further derivatization. Trimethylsilylation of cutin monomers was performed with BSTFA [N, O-bis(trimethylsilyl) trifluoroactamide] and TMCS (trimethylchlorosilane) provided by the supplier in the ratio 99:1 (Supelco, Bellefonte, USA) at 70° C. for 3 h, and the composition of the mixture determined by GC-MS.
Cutin monomers were identified by GC-MS on an Agilent 6890 gas chromatography system coupled to a 5973 quadrupole mass spectrometer. 1 μL was injected under splitless condition on a 50 m×0.20 mm×0.33 μm DB-5MS capillary column (Agilent). The oven temperature program was 70° C. (for 1.39 min) to 136° C. at 64° C./min and to 290° C. at 2.5° C./min (for 55 min). Helium was used as carrier gas. The temperature at the injection port was 250° C. The detector was run in El mode at 70 eV. Masses were scanned between 50 and 650 amu.
Components were identified by comparison of the MS spectra of their trimethylsilyl (TMSi) derivatives, as methyl ester TMSi ether or as TMSi ester TMSi ether, with published spectra (Kallio et al., 2006; Philipps et al., 2002).
To measure cutinase activity, assays of cutin hydrolysis were performed as described in Example 1, section 1.7 at two different enzyme concentrations. Characteristic cutin components, C16 and C18 hydroxyl fatty acids, were identified by GC-MS analysis.

B1: KrCUT: mature Kineococcus radiotolerans cutinase, amino acids 34-294 of SEQ ID NO: 1; SEQ ID NO: 6 (protein)
chain: ATCSDVDVVFARGTGETPGLGVVGGPFVRSLTGELSDRTVTSHAVDYAASSSQASAGPGATAMSAHVREVAAACPSTRFVLGGYSQGATVTDIALGIRTGTTTGTPVPAELAGRVAAVVVFGNPLGLSGRTIATASSTYGPKSKDYCNSSDSVCGSAPKTGTGGHLSYASNGSTTDGARFAAGLVRAAGTPTTPTPTPTPTPVPTTCVRDSTRDHVAADRAVSLYGRAYARGSRDSLGATSSYNVVSLQQVEGGWRLVTAC
modifications: Kineococcus radiotolerans; (1)..(261) KrCUT (lacking residues 1-33 of ssKrCUT)
[1]
  pH optimum: 8
[2]; 20 Units cutinase
  10,16-dihydroxyhexadecanoic acid released, Area (%): 39.25 ± 2.5%
  18-hydroxy-octadeca-9,12-dienoic acid released, Area (%): 18.0 ± 6.3%
[2]; 200 Units cutinase
  9,10,18-trihydroxyoctadec-9 enoic acid released, Area (%): 6.25 ± 0.40%
  9,10,18-trihydroxyoctadec-10,12-dienoic acid released, Area (%): 13.25 ± 0.40%
  9,10,18-trihydroxyoctadecanoic acid released, Area (%): 25.55 ± 0.10%
  9,16-dihydroxyhexadecanoic acid released, Area (%): 3.81 ± 0.62%
  10,16-dihydroxyhexadecanoic acid released, Area (%): 27.74 ± 0.41%
  18-hydroxy-octadeca-9,12-dienoic acid released, Area (%): 2.22 ± 0.13%

Source: patent publication US10227575B2, “Multi-domain enzymes having cutinase activity, compositions comprising same and uses thereof” (OZYMES, priority 2015, dated 2019)
